Literature values in paper PMC5013049.

Experiments:
[1] = target: ExsD (Pseudomonas aeruginosa) (UniProt Q9I321); experiment: ITC
[2] = target: ExsE (Pseudomonas aeruginosa) (UniProt Q9I322); experiment: ITC
Sequence of UniProt Q9I322 (Q9I322 whole entry): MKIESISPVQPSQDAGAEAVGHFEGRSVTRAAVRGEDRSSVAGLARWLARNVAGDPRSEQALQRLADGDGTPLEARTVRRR

Sequence of UniProt Q9I321 (Q9I321 whole entry): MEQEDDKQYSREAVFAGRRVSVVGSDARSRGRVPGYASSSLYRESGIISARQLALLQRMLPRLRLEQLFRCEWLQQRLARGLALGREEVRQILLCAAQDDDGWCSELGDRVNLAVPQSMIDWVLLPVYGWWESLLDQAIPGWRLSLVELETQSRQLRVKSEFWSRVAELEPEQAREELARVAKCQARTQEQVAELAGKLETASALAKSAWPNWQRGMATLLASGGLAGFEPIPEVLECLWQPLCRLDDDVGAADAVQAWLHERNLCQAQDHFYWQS

In the case of ExsC (from UniProt P26995), the Kd [1] is given as 18 nM and the Kd [2] is given as 1 nM.
